Results from patent US20240270874A1.
Blank lines part the entries; values can stand above or below the substance they belong to.

How the values were obtained:
Experiment in all cases: cell-based or functional assay
[1] = target: human KLB & human FGFR3c on L6 cells (human) (UniProt Q86Z14)
[2] = target: human KLB & human FGFR4 on L6 cells (human) (UniProt Q86Z14)
[3] = target: human FGFR1c on cells (human) (UniProt P11362)
[4] = target: human KLB&FGFR1c complex on cells (human) (UniProt Q86Z14)
Chain of human KLB&FGFR1c complex on cells (human) (Q86Z14 whole entry, chain 1 of 2): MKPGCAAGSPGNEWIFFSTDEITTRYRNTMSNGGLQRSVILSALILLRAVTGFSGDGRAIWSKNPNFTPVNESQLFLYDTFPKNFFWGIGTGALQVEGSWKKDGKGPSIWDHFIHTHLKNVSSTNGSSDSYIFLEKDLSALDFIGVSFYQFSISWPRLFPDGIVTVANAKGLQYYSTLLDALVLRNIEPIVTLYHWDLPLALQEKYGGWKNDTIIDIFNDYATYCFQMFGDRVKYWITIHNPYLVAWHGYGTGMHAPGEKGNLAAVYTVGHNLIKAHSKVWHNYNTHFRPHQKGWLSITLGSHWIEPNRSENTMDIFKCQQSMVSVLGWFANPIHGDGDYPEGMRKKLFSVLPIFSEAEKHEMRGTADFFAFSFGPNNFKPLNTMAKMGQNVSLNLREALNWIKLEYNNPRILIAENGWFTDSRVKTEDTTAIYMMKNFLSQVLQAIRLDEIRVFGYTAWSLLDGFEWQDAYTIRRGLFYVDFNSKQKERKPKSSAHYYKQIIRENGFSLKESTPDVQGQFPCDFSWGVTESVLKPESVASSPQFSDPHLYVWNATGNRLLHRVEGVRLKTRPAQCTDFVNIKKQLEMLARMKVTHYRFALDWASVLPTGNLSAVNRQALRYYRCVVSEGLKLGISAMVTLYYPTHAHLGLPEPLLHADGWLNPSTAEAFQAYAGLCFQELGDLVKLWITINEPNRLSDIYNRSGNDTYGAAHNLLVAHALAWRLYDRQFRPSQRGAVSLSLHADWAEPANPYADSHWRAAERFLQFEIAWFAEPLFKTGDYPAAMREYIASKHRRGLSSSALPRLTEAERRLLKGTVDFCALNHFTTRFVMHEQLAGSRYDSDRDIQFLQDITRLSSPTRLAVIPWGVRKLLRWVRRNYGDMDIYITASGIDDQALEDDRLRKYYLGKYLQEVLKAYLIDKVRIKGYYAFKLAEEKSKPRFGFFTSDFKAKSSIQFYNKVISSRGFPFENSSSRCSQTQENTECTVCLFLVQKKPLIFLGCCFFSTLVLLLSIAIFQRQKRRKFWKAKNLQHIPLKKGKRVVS
Chain of human KLB&FGFR1c complex on cells (human) (P11362 22-822, chain 2 of 2, further chain): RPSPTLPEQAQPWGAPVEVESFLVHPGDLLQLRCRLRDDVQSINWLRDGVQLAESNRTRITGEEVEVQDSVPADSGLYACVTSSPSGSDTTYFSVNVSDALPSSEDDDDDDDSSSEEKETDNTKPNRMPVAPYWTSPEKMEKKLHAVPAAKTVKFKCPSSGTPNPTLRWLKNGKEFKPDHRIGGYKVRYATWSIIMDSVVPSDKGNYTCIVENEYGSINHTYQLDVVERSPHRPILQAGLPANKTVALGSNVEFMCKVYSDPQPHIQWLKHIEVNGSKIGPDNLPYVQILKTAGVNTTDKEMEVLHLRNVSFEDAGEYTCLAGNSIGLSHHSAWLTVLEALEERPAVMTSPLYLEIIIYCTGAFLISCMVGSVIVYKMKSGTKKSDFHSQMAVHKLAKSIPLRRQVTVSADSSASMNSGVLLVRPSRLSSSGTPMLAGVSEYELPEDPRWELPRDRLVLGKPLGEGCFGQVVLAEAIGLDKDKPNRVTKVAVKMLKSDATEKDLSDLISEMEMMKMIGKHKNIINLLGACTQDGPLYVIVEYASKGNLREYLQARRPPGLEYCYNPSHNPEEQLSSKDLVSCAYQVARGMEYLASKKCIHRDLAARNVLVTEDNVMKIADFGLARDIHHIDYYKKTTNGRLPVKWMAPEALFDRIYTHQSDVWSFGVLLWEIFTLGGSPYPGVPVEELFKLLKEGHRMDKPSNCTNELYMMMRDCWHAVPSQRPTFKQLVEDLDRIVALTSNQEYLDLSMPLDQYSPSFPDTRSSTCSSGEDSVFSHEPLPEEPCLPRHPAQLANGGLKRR

Chain of human KLB & human FGFR4 on L6 cells (human) (Q86Z14 whole entry, chain 1 of 2): as the sequence (Q86Z14 whole entry, chain 1 of 2) above
Chain of human KLB & human FGFR4 on L6 cells (human) (P22455 22-802, chain 2 of 2, further chain): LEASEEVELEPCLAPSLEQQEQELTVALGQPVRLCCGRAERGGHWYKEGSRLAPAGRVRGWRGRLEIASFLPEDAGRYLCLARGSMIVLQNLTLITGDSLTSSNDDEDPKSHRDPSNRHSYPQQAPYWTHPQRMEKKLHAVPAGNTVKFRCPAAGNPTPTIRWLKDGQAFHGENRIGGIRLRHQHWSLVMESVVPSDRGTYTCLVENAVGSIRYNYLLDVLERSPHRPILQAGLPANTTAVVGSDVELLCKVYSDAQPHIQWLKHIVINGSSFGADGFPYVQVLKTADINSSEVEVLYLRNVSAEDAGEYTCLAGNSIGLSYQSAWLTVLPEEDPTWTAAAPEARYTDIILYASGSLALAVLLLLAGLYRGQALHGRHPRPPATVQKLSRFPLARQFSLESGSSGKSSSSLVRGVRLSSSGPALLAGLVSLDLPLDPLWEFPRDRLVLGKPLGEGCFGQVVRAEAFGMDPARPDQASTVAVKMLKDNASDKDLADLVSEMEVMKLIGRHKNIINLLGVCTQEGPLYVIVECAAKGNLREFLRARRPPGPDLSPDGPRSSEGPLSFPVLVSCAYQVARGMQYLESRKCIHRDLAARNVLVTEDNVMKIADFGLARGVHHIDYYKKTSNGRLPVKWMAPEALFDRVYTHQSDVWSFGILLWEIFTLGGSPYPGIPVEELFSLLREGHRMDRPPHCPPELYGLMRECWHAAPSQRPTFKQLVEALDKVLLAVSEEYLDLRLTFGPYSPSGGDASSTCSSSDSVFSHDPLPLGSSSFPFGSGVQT
Chain of human KLB & human FGFR3c on L6 cells (human) (Q86Z14 whole entry, chain 1 of 2): as the sequence (Q86Z14 whole entry, chain 1 of 2) above
Chain of human KLB & human FGFR3c on L6 cells (human) (P22607 23-806, chain 2 of 2, further chain): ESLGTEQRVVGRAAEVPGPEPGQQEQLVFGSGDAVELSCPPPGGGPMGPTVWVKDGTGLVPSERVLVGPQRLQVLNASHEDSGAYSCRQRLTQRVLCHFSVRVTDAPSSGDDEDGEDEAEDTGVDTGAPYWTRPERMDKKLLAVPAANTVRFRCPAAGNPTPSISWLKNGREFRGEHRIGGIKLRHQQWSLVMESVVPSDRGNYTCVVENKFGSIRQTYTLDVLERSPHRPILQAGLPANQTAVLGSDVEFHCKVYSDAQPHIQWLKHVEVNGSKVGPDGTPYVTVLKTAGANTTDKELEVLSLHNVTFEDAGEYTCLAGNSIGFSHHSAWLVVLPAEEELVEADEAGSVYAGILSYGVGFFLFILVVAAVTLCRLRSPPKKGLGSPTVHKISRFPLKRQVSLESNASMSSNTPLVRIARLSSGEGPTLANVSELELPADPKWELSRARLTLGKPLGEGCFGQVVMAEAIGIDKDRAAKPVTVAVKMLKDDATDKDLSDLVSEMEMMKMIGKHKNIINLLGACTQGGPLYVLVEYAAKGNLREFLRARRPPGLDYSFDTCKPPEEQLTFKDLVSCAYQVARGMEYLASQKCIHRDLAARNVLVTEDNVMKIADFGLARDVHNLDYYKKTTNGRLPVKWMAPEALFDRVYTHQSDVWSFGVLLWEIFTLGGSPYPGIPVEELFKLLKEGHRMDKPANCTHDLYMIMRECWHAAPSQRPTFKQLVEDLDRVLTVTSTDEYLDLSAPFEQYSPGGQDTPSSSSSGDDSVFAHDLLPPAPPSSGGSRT
Chain of human FGFR1c on cells (human) (P11362 22-822): as the sequence (P11362 22-822, chain 2 of 2, further chain) above

Activation fold, pERK/total ERK in L6-hKLB&hFGFR3c cells [1]: 10.2 fold
Activation fold, pERK/total ERK in L6-hKLB&hFGFR4 cells [2]: 2.11 fold
Substance: AKR001 (ligand)

Activation fold, SRE-Luc2P reporter in HEK293-hFGFR1c cells [3]: 11.6 fold
Substance: FGF2 (Sino Biological, 10014-HNAE) (from UniProt P09038 143-288) (ligand)

Activation fold, GAL4-Elk1 luciferase reporter in CHOK1-hKLB&hFGFR1c cells [4]: 5.62 fold
Activation fold, SRE-Luc2P reporter in HEK293T-hKLB&hFGFR1c cells [4]: 1.65 fold
EC50 (nM), GAL4-Elk1 luciferase reporter in CHOK1-hKLB&hFGFR1c cells [4]: 0.64 nM
EC50 (nM), SRE-Luc2P reporter in HEK293T-hKLB&hFGFR1c cells [4]: 5.06 nM
Substance: MK3655 (antibody)
